First the molecules themselves.
B1: KCNA3 (parent)
chain: YQSGGRIRRPVNVPIDIFSEEIRF
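Also: lentivirally expressed fusions sorted by FACS into six bins by GFP to DsRed ratio, PSI derived from sequencing read proportions per bin multiplied by bin number.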

Variants of B1 are the subject of this data set. The experiment in a line: protein stability index of a GFP-peptide fusion (GPS, HEK-293T) (PSI 1-6); higher = more stable. The settings on record: c terminus: a fixed tail appended.
With YQSGGRIRRPVNVPIDIFQEEIRF [S19Q], the protein stability index was 1.68.
As for YQSGGRIRRPVNVPIDIFIEEIRF [S19I], the figure is 1.85.
Consider YQSGGRIRRPVNVPIDIFKEEIRF [S19K], for which the protein stability index stood at 1.54.
As for YQSGGRIRRPVNVPIDIFDEEIRF [S19D], the figure is 2.43.
As for YQSGGRIRRPVNVPIDIFAEEIRF [S19A], the figure is 1.83.
Regarding YQSGGRIRRPVNVPIDIFREEIRF [S19R], the protein stability index came out at 1.64.
Take YQSGGRIRRPVNVPIDIFEEEIRF [S19E]: the protein stability index was 1.87.
As for YQSGGRIRRPVNVPIDIFYEEIRF [S19Y], the figure is 2.4; as for YQSGGRIRRPVNVPIDIFTEEIRF [S19T], 2.6.
As for YQSGGRIRRPVNVPIDIFPEEIRF [S19P], the protein stability index worked out at 1.73.
Regarding YQSGGRIRRPVNVPIDIFGEEIRF [S19G], the protein stability index came out at 2.52.
As for YQSGGRIRRPVNVPIDIFFEEIRF [S19F], the figure is 1.51.
As for YQSGGRIRRPVNVPIDIFLEEIRF [S19L], the figure is 1.41; as for YQSGGRIRRPVNVPIDYFSEEIRF [I17Y], 2.79.
As for YQSGGRIRRPVNVPIDLFSEEIRF [I17L], the figure is 1.86; as for YQSGGRIRRPVNVPIDNFSEEIRF [I17N], 2.74; as for YQSGGRIRRPVNVPIDPFSEEIRF [I17P], 3.32.
Regarding YQSGGRIRRPVNVPIDRFSEEIRF [I17R], the protein stability index was determined as 2.48.
As for YQSGGRIRRPVNVPIDEFSEEIRF [I17E], the figure is 3.04; as for YQSGGRIRRPVNVPIDTFSEEIRF [I17T], 1.97.
As for YQSGGRIRRPVNVPIDMFSEEIRF [I17M], the figure is 2.21; as for YQSGGRIRRPVNVPIDHFSEEIRF [I17H], 1.91.
As for YQSGGRIRRPVNVPIDAFSEEIRF [I17A], the figure is 2.85; as for YQSGGRIRRPVNVPIDKFSEEIRF [I17K], 2.05.
Consider YQSGGRIRRPVNVPIDWFSEEIRF [I17W], for which the protein stability index was determined as 1.23.
As for YQSGGRIRRPVNVPIDGFSEEIRF [I17G], the figure is 2.19; as for YQSGGRIRRPVNVPIDCFSEEIRF [I17C], 2.48.
In the case of YQSGGRIRRPVNVPIDDFSEEIRF [I17D], the protein stability index was 2.34.
As for YQSGGRIRRPVNVPIDQFSEEIRF [I17Q], the figure is 1.89.
As for YQSGGRIRRPVNVPIDFFSEEIRF [I17F], the figure is 1.76; as for YQSGGRIRRPVNVPIDVFSEEIRF [I17V], 2.48; as for YQSGGRIRRPVNVPIDSFSEEIRF [I17S], 2.33.
As for YQSGGRIRRPVNVPIDIFSDEIRF [E20D], the figure is 2.26; as for YQSGGRIRRPVNVPIDIFSKEIRF [E20K], 2.29; as for YQSGGRIRRPVNVPIDIFSPEIRF [E20P], 2.11.
For YQSGGRIRRPVNVPIDIFSCEIRF [E20C], the protein stability index turned out to be 2.19.
As for YQSGGRIRRPVNVPIDIFSSEIRF [E20S], the figure is 1.82; as for YQSGGRIRRPVNVPIDIFSFEIRF [E20F], 2.93.
As for YQSGGRIRRPVNVPIDIFSTEIRF [E20T], the figure is 1.53.
For YQSGGRIRRPVNVPIDIFSAEIRF [E20A], the protein stability index stood at 2.06.
With YQSGGRIRRPVNVPIDIFSYEIRF [E20Y], the protein stability index amounted to 2.34.
As for YQSGGRIRRPVNVPIDIFSGEIRF [E20G], the figure is 1.37; as for YQSGGRIRRPVNVPIDIFSMEIRF [E20M], 1.96; as for YQSGGRIRRPVNVPIDIFSNEIRF [E20N], 2.52.
YQSGGRIRRPVNVPIDIFSREIRF [E20R]: the protein stability index is 1.61.
YQSGGRIRRPVNVPIDIFSHEIRF [E20H]: the protein stability index stood at 2.04.
As for YQSGGRIRRPVNVPIDIFSQEIRF [E20Q], the figure is 1.68; as for YQSGGRIRRPVNVPIDIFSEEARF [I22A], 1.34; as for YQSGGRIRRPVNVPIDIMSEEIRF [F18M], 2.35.
As for YQSGGRIRRPVNVPIDILSEEIRF [F18L], the figure is 2.63; as for YQSGGRIRRPVNVPIDINSEEIRF [F18N], 3.17; as for YQSGGRIRRPVNVPIDISSEEIRF [F18S], 2.8.
For YQSGGRIRRPVNVPIDIDSEEIRF [F18D], the protein stability index is 2.3.
As for YQSGGRIRRPVNVPIDIRSEEIRF [F18R], the figure is 2.11.
As for YQSGGRIRRPVNVPIDIGSEEIRF [F18G], the figure is 2.49; as for YQSGGRIRRPVNVPIDIASEEIRF [F18A], 2.68.
As for YQSGGRIRRPVNVPIDIVSEEIRF [F18V], the figure is 2.41.
YQSGGRIRRPVNVPIDIHSEEIRF [F18H]: the protein stability index was 2.29.
For the variant YQSGGRIRRPVNVPIDIESEEIRF [F18E], the protein stability index was 3.23.
As for YQSGGRIRRPVNVPIDIYSEEIRF [F18Y], the figure is 2.2.
Consider YQSGGRIRRPVNVPIDIISEEIRF [F18I], for which the protein stability index was found to be 1.49.
As for YQSGGRIRRPVNVPIDITSEEIRF [F18T], the figure is 2.4; as for YQSGGRIRRPVNVPIDICSEEIRF [F18C], 2.36; as for YQSGGRIRRPVNVPIDIPSEEIRF [F18P], 2.55.
As for YQSGGRIRRPVNVPIDIKSEEIRF [F18K], the figure is 1.99.
As for YQSGGRIRRPVNVPIDIQSEEIRF [F18Q], the figure is 1.81; as for YQSGGRIRRPNNVPIDIFSEEIRF [V11N], 2.42.
For YQSGGRIRRPPNVPIDIFSEEIRF [V11P], the protein stability index amounted to 1.83.
As for YQSGGRIRRPLNVPIDIFSEEIRF [V11L], the figure is 1.44; as for YQSGGRIRRPTNVPIDIFSEEIRF [V11T], 1.98; as for YQSGGRIRRPINVPIDIFSEEIRF [V11I], 1.7.
As for YQSGGRIRRPMNVPIDIFSEEIRF [V11M], the protein stability index came to 2.01.
As for YQSGGRIRRPYNVPIDIFSEEIRF [V11Y], the figure is 2.18; as for YQSGGRIRRPQNVPIDIFSEEIRF [V11Q], 2.03; as for YQSGGRIRRPHNVPIDIFSEEIRF [V11H], 1.66.
As for YQSGGRIRRPSNVPIDIFSEEIRF [V11S], the figure is 1.74; as for YQSGGRIRRPRNVPIDIFSEEIRF [V11R], 2.37; as for YQSGGRIRRPKNVPIDIFSEEIRF [V11K], 1.85.
As for YQSGGRIRRPVNVCIDIFSEEIRF [P14C], the figure is 1.33; as for YQSGGRIRRPVNVEIDIFSEEIRF [P14E], 1.43.
On to YQSGGRIRRPVNVFIDIFSEEIRF [P14F], for which the protein stability index worked out at 1.07.
As for YQSGGRIRRPVNVSIDIFSEEIRF [P14S], the figure is 1.42.
As for YQSGGRIRRPVNVKIDIFSEEIRF [P14K], the figure is 1.78.
YQSGGRIRRPVNVGIDIFSEEIRF [P14G]: the protein stability index stood at 1.9.
As for YQSGGRIRRPVNVVIDIFSEEIRF [P14V], the protein stability index was found to be 1.61.
As for YQSGGRIRRPVNVIIDIFSEEIRF [P14I], the figure is 2.88.
YQSGGRIRRPVNVLIDIFSEEIRF [P14L]: the protein stability index came out at 2.85.
As for YQSGGRIRRPVNVQIDIFSEEIRF [P14Q], the figure is 3.61; as for YQSGGRIRRPVNVWIDIFSEEIRF [P14W], 2.98; as for YQSGGRIRRPVNVAIDIFSEEIRF [P14A], 1.81.
As for YQSGGRIRRPVNVHIDIFSEEIRF [P14H], the figure is 2.02; as for YQSGGRIRRPVNVMIDIFSEEIRF [P14M], 3.25.
As for YQSGGRIRRPVNVTIDIFSEEIRF [P14T], the figure is 1.81; as for YQSGGRIRRPVNVDIDIFSEEIRF [P14D], 1.85.

These data come from the supplement of paper PMC10567573.
